Biological target: African cassava mosaic virus (ACMV) capsid protein expressed in fission yeast (African cassava mosaic virus (ACMV-[Nigeria-Ogo]))
Assay: SDS-PAGE with Western blot

African cassava mosaic virus (ACMV) capsid protein expressed in fission yeast (natural protein)
stoichiometry N: 2
